These results are taken from patent US20260015418A1 (ABL BIO, published 2026).

In experiment [1] the target is T1, human ROR1 protein (ROR1-His; Sino Biological, Catalog #13968-H08H) (human, UniProt Q01973 30-406).
T1 construct: extracellular domain; Bought protein; also called human recombinant ROR1 protein
Nature of the experiment: ELISA, plate coated with ROR1-His (1 ug/ml), bound antibody detected with HRP-conjugated anti-Fab polyclonal antibody, OD at 450 nm. The method, then:
(§1) The binding affinity of the anti-ROR1 antibody-antigen was evaluated using an ELISA-based solution binding assay. Specifically, 96-well microtiter plates (Nunc-Immuno Plates, NUNC) were coated with ROR1 protein (ROR1-His; sino biological, Catalog #13968-H08H) at a concentration of 1 μg/ml in PBS solution at 4° C. for 16 hours, and non-specific binding sites were blocked with 1% (v/v) BSA (bovine serum albumin) for 2 hours.
(§2) Subsequently, on the 96-well microtiter plates, anti-ROR1 antibodies at concentrations stated in FIGS. 1a to 1c were added to the microtiter plates, and their binding capabilities were analyzed by ELISA as follows. Specifically, after incubating at 37° C. for 2 hours, the plates were washed five times with PBS containing 0.05% (v/v) Tween 20, then the HRP-conjugated Fab polyclonal antibody reagent (Pierce, Catalog #31414) was diluted at a 1:30,000 ratio and added to the washed microtiter plates, then reacted for 1 hour at 37° C., then detected the bound anti-ROR1 antibodies. After reaction, the color was developed using TMB (tetramethylbenzidine, Sigma, T0440). The enzymatic reaction was stopped with 0.5 mol/L sulfuric acid, and the absorbance was read at 450 nm and 650 nm using a microplate reader (Molecular Devices).
On the technique in general: ELISA stands for enzyme-linked immunosorbent assay.

The target in experiment [2] is T1, human ROR1 protein (ROR1-His; Sino …). Nature of the experiment: ELISA, plate coated with ROR1-His (1 ug/ml), bound antibody detected with HRP-conjugated anti-Fab polyclonal antibody, OD at 450 nm; lower graph and table. The method, then: as §1, §2
The target of experiment [3] is T2, human B7-H3 on CHO-huROR1-huB7-H3 cells (human, UniProt Q5ZPR3 29-534).
T2 construct: whole, on cells; also called cell surface B7-H3
T2 sequence (looked up): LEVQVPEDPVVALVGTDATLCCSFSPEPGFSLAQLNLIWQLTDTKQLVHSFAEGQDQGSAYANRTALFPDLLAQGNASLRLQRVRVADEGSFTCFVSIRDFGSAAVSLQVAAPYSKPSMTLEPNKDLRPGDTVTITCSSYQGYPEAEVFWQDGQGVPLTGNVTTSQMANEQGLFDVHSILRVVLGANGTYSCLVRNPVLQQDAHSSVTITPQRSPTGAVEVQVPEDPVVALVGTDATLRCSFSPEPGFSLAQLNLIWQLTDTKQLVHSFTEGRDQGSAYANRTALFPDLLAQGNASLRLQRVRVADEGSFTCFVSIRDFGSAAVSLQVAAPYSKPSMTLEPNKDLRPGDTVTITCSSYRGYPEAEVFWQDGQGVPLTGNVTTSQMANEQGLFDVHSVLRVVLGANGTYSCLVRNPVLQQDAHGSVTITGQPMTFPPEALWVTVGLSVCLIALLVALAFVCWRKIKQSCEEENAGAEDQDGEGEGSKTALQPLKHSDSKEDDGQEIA
Nature of the experiment: flow cytometry on CHO-huROR1-huB7-H3 cells, FITC anti-human IgG, MFI over secondary antibody only. An excerpt: To evaluate the cell-binding ability of the anti-ROR1/B7-H3 bispecific antibody, cells expressing both ROR1 and B7-H3 were used to compare the cell-binding ability of the bispecific antibody with that of the monospecific antibodies.
As a cell line for the comparison of cell-binding ability, CHO-huROR1-huB7-H3 cell line (obtained by transfecting the ROR1-CHO recombinant cell line (BPS Bioscience) with the human B7-H3 gene (Origene) and selecting for the desired gene-inserted single cells using G418), which stably transfected the human ROR1 and human B7-H3 gene to artificially overexpress both human ROR1 and human B7-H3 proteins were used, and analysis was performed using a flow cytometer (LSRFortessa X-20, BD Biosciences). Specifically, after dissociating and washing the overexpressing cell line with PBS, the cell number was counted, and the cells were seeded at a density of 2×10⁵ cells per well into a V-bottom 96-well plate (96 Well Plate-RV, Bioneer, 910D09). Antibodies diluted 4-fold starting from 100 nM in 1% BSA solution were added at 100 μL per well to the centrifuged cells and incubated at 4° C. for 1 hour. […] After the reaction, the cells were washed twice with the same buffer, resuspended in 100 μL of PBS, and analyzed using a FACS instrument. A total of 10,000 cells were detected per measurement, and the data was analyzed using FlowJo software. […]
A general note: Flow cytometry measures light scatter and fluorescence of single cells or particles in a stream.

In experiment [4] the target is T1, human ROR1 protein (ROR1-His; Sino …). The experiment is described as follows: ELISA, plate coated with ROR1-His (1 ug/ml), bound antibody detected with HRP-conjugated anti-Fab polyclonal antibody, OD at 450 nm; lower graph and table. The method, then: as §1, §2
This is another data set of the same source.

The target is the same in experiment [5]. Nature of the experiment: ELISA, plate coated with ROR1-His (1 ug/ml), bound antibody detected with HRP-conjugated anti-Fab polyclonal antibody, OD at 450 nm; upper graph and table. The method, then:
as §1, §2

Experiment [6] shares this target. The description is as above. The method, then: as §1, §2
This is another data set of the same source.

Experiment [7] shares this target. Nature of the experiment: ELISA, plate coated with ROR1-His (1 ug/ml), bound antibody detected with HRP-conjugated anti-Fab polyclonal antibody, OD at 450 nm; upper table (the graph's legend names the third curve M8_N97G). The method, then: as §1, §2

B1: M1 (PTM mutant of BA6 IgG) (antibody, V domains shown)
VH: EVQLLESGGGLVQPGGSLRLSCAASGFTFSNYDMSWVRQAPGKGLEWVSAIYHSGSSKYYADSVKGRFTISRDNSKNTLYLQMNSLRAEDTAVYYCARGGNGAWDTGFDYWGQGTLVTVSS
VL: QSVLTQPPSASGTPGQRVTISCSGSSSNIGSNDVSWYQQLPGTAPKLLIYYANNRPSGVPDRFSGSKSGTSASLAISGLRSEDEADYYCGAWDDSLSGYVFGGGTKLTVL
notes: IgG of BA6 with one mutation
A word on the EC50: it is the midpoint of the concentration-response curve. The low end stands for an effect from little substance, the high end for a need for much substance. Turning to B1, a half-maximal effect in experiment [1] (EC50) was put at 0.326 nM.

B2: BA6 IgG(NA) (antibody, V domains shown)
VH: EVQLLESGGGLVQPGGSLRLSCAASGFTFSNYDMSWVRQAPGKGLEWVSAIYHSGSSKYYADSVKGRFTISRDNSKNTLYLQMNSLRAEDTAVYYCARGGNGAWDTGFDYWGQGTLVTVSS
VL: QSVLTQPPSASGTPGQRVTISCSGSSSNIGSNDVSWYQQLPGTAPKLLIYYDNNRPSGVPDRFSGSKSGTSASLAISGLRSEDEADYYCGAWDDSLSGYVFGGGTKLTVLG
Consider B2, for which the EC50 in experiment [2] came out at 0.299 nM.

B3: B5 (antibody, V domains shown)
VH: EVQLLESGGGLVQPGGSLRLSCAASGFTFSDYAMSWVRQAPGKGLEWVSSISSGSGSIYYADSVKGRFTISRDNSKNTLYLQMNSLRAEDTAVYYCAKNLIPLDYWGQGTLVTVSS
VL: QSVLTQPPSASGTPGQRVTISCSGSSSNIGSNAVSWYQQLPGTAPKLLIYYNSHRPSGVPDRFSGSKSGTSASLAISGLRSEDEADYYCGSWDASLNAYVFGGGTKLTVL
notes: also called anti-B7-H3 monospecific antibody B5; anti-B7-H3 antibody clone B5 (WO2019-226017 A1)
For orientation: EC50 (read off the curve) means the concentration needed to bring the measured effect to its halfway point. High values mean lower potency in that assay, low ones higher potency in that assay. As for B3, the “EC50 (read off the curve)” value in experiment [3] was approximately 1 nM.

B4: M2 (PTM mutant of BA6 IgG) (antibody, V domains shown)
VH: EVQLLESGGGLVQPGGSLRLSCAASGFTFSNYDMSWVRQAPGKGLEWVSAIYHSGSSKYYADSVKGRFTISRDNSKNTLYLQMNSLRAEDTAVYYCARGGNGAWDTGFDYWGQGTLVTVSS
VL: QSVLTQPPSASGTPGQRVTISCSGSSSNIGSNDVSWYQQLPGTAPKLLIYYTNNRPSGVPDRFSGSKSGTSASLAISGLRSEDEADYYCGAWDDSLSGYVFGGGTKLTVL
notes: IgG of BA6 with one mutation; Kabat L51
Turning to B4, in experiment [1], the midpoint of the response, the EC50, lay at 10.2 nM.

B5: M3 (PTM mutant of BA6 IgG) (antibody, V domains shown)
VH: EVQLLESGGGLVQPGGSLRLSCAASGFTFSNYDMSWVRQAPGKGLEWVSAIYHSGSSKYYADSVKGRFTISRDNSKNTLYLQMNSLRAEDTAVYYCARGGNGAWDTGFDYWGQGTLVTVSS
VL: QSVLTQPPSASGTPGQRVTISCSGSSSNIGSNDVSWYQQLPGTAPKLLIYYENNRPSGVPDRFSGSKSGTSASLAISGLRSEDEADYYCGAWDDSLSGYVFGGGTKLTVL
notes: as for B4
B5: the EC50 worked out at 0.189 nM in experiment [4], 0.333 nM in experiment [1], 0.478 nM in experiment [5] and 0.755 nM in experiment [6].

B6: M9 (PTM mutant of BA6 IgG) (antibody, V domains shown)
VH: EVQLLESGGGLVQPGGSLRLSCAASGFTFSNYDMSWVRQAPGKGLEWVSAIYHSGSSKYYADSVKGRFTISRDNSKNTLYLQMNSLRAEDTAVYYCARGGSGAWDTGFDYWGQGTLVTVSS
VL: QSVLTQPPSASGTPGQRVTISCSGSSSNIGSNDVSWYQQLPGTAPKLLIYYDNNRPSGVPDRFSGSKSGTSASLAISGLRSEDEADYYCGAWDDSLSGYVFGGGTKLTVL
notes: IgG of BA6 with one CDRH3 mutation; Kabat H97
For the molecule B6, it took 1.08 nM to reach a half-maximal effect in experiment [7] (EC50).

B7: M8 (PTM mutant of BA6 IgG) (antibody, V domains shown)
VH: EVQLLESGGGLVQPGGSLRLSCAASGFTFSNYDMSWVRQAPGKGLEWVSAIYHSGSSKYYADSVKGRFTISRDNSKNTLYLQMNSLRAEDTAVYYCARGGGGAWDTGFDYWGQGTLVTVSS
VL: QSVLTQPPSASGTPGQRVTISCSGSSSNIGSNDVSWYQQLPGTAPKLLIYYDNNRPSGVPDRFSGSKSGTSASLAISGLRSEDEADYYCGAWDDSLSGYVFGGGTKLTVL
notes: IgG of BA6 with one CDRH3 mutation; Kabat H97 (same column as M9)
The molecule B7 registered an EC50 in experiment [5] of 7.56 nM.

B8: M10 (PTM mutant of BA6 IgG) (antibody, V domains shown)
VH: EVQLLESGGGLVQPGGSLRLSCAASGFTFSNYDMSWVRQAPGKGLEWVSAIYHSGSSKYYADSVKGRFTISRDNSKNTLYLQMNSLRAEDTAVYYCARGGYGAWDTGFDYWGQGTLVTVSS
VL: QSVLTQPPSASGTPGQRVTISCSGSSSNIGSNDVSWYQQLPGTAPKLLIYYDNNRPSGVPDRFSGSKSGTSASLAISGLRSEDEADYYCGAWDDSLSGYVFGGGTKLTVL
notes: as for B7
With B8, a half-maximal response in experiment [5] (EC50) required 2.76 nM.

B9: M4 (PTM mutant of BA6 IgG) (antibody, V domains shown)
VH: EVQLLESGGGLVQPGGSLRLSCAASGFTFSNYDMSWVRQAPGKGLEWVSAIYHSGSSKYYADSVKGRFTISRDNSKNTLYLQMNSLRAEDTAVYYCARGGNGAWDTGFDYWGQGTLVTVSS
VL: QSVLTQPPSASGTPGQRVTISCSGSSSNIGSNDVSWYQQLPGTAPKLLIYYSNNRPSGVPDRFSGSKSGTSASLAISGLRSEDEADYYCGAWDDSLSGYVFGGGTKLTVL
notes: as for B4
For B9, in experiment [1], the EC50 was 10.2 nM.

B10: M5 (PTM mutant of BA6 IgG) (antibody, V domains shown)
VH: EVQLLESGGGLVQPGGSLRLSCAASGFTFSNYDMSWVRQAPGKGLEWVSAIYHSGSSKYYADSVKGRFTISRDNSKNTLYLQMNSLRAEDTAVYYCARGGNYAWDTGFDYWGQGTLVTVSS
VL: QSVLTQPPSASGTPGQRVTISCSGSSSNIGSNDVSWYQQLPGTAPKLLIYYDNNRPSGVPDRFSGSKSGTSASLAISGLRSEDEADYYCGAWDDSLSGYVFGGGTKLTVL
notes: IgG of BA6 with one CDRH3 mutation
B10 showed an EC50 in experiment [1] of 3.27 nM.

B11: M7 (PTM mutant of BA6 IgG) (antibody, V domains shown)
VH: EVQLLESGGGLVQPGGSLRLSCAASGFTFSNYDMSWVRQAPGKGLEWVSAIYHSGSSKYYADSVKGRFTISRDNSKNTLYLQMNSLRAEDTAVYYCARGGNRAWDTGFDYWGQGTLVTVSS
VL: QSVLTQPPSASGTPGQRVTISCSGSSSNIGSNDVSWYQQLPGTAPKLLIYYDNNRPSGVPDRFSGSKSGTSASLAISGLRSEDEADYYCGAWDDSLSGYVFGGGTKLTVL
notes: as for B10
For the molecule B11, a half-maximal effect in experiment [2] (EC50) was put at 12.5 nM.

B12: M6 (PTM mutant of BA6 IgG) (antibody, V domains shown)
VH: EVQLLESGGGLVQPGGSLRLSCAASGFTFSNYDMSWVRQAPGKGLEWVSAIYHSGSSKYYADSVKGRFTISRDNSKNTLYLQMNSLRAEDTAVYYCARGGNVAWDTGFDYWGQGTLVTVSS
VL: QSVLTQPPSASGTPGQRVTISCSGSSSNIGSNDVSWYQQLPGTAPKLLIYYDNNRPSGVPDRFSGSKSGTSASLAISGLRSEDEADYYCGAWDDSLSGYVFGGGTKLTVL
notes: as for B10
For B12, the response in experiment [1] was half-maximal at 0.955 nM (EC50).
